Measurements reported in publication PMC4278327, “Pathways driving the endocytosis of mutant and wild-type EGFR in cancer” (Oncoscience, 2014).

Biological target: T1, wild-type EGFR (epidermal growth factor receptor) (UniProt P00533 25-1210)
T1 construct: EGFR, wild type, expressed from the plasmid pcDNA3.1-EGFR; Probably the whole human receptor, expressed in cells that have no EGFR of their own; source: MDA-MB-435, transfected (pcDNA3.1-EGFR), in lysate
Test: co-IP; lysates of MDA-MB-435 cells transfected with EGFR plasmids, immunoprecipitated with the anti-EGFR antibody IMC-C225; western blot with the anti-S2R^PGRMC1 antibody PGR-UK1; representative of three independent experiments
Settings: partners not purified

B1: S2R^PGRMC1 (sigma-2 receptor / progesterone receptor membrane component 1) (natural protein)
chain: not shown
notes: PGRMC1 (progesterone receptor membrane component 1), endogenous in MDA-MB-435 human breast cancer cells, detected with the antibody PGR-UK1; source: endogenous, MDA-MB-435 lysate
fold co-precipitated, wild-type EGFR against the EGFR-Δ747-749/A750P mutant: 2.4 fold
